From IntAct's records for PubMed 26235546

What was measured:
[1] = biological target: pspf_ecoli pspF (UniProt P37344)
[2] = biological target: pspf_ecoli pspF (UniProt P37344); remark: listed apart in the source

Chain of pspf_ecoli pspF (P37344 whole entry): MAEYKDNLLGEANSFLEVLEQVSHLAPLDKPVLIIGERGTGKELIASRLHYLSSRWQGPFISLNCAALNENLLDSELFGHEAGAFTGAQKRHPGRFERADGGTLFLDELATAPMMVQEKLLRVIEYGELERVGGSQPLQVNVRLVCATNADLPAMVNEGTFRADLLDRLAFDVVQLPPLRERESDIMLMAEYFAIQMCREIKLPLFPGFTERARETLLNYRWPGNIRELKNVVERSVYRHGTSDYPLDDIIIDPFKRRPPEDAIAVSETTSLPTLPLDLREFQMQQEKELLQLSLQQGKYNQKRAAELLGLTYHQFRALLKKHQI

| Substance | effect of a mutation on the interaction [1] | effect of a mutation on the interaction [2] |
| --- | --- | --- |
| Phage shock protein A (Escherichia coli (strain K12)) (from UniProt P0AFM6) E37A | with no effect | decreasing interaction strength |
| Phage shock protein A (Escherichia coli (strain K12)) (from UniProt P0AFM6) R59E | – | with no effect |
